In assay [1] the test system is allergen specific antibodies to ovalbumin (XOA): IgG1, IgG2a, IgG2b. In words: ELISA of serum IgG1, IgG2a and IgG2b antibodies after subcutaneous immunisation and booster of mice. Type of assay: in vivo, BALB/c female mice. As to conditions: BALB/c mice, 0.2 mL s.c., boosted at day 21, bled 14 days after booster. The procedure: (§1) TH1 inducing activity in mice can be equated with the production of IgG2a and IgG2b antibodies and the TH2 inducing activity with the production of IgG 1 antibodies and IgE antibodies.
(§2) Groups of 8 BALB/c female mice, 6-8 weeks of age, were injected subcutaneously in the inguinal area with 0.2 mL of one of the following vaccines:
(§3) XOA+Tyrosine: The XOA tyrosine adsorbate prepared in Preparation 2 above was diluted with an equal volume of phosphate buffered saline within 30 min prior to injection.
XOA+Tyrosine+MPL: The XOA tyrosine adsorbate prepared in Preparation 2 above was diluted with an equal volume of MPL®-AF at 500 μg/mL in phosphate buffered saline within 30 min prior to injection.
XOA+MPL: XOA was dissolved in phosphate buffered saline at 200 μg/mL and diluted with an equal volume of MPL®-AF at 500 μg/mL in phosphate buffered saline within 30 min prior to injection.
XOA Alone: XOA was dissolved at 200 μg/mL in phosphate buffered saline and diluted with an equal volume of phosphate buffered saline.
Twenty-one days later the four groups of mice were boosted with 0.2 mL of freshly prepared vaccines. Fourteen days following the booster the mice were bled and the sera separated and stored at −70° C. until assay.
(§4) The sera were assayed by conventional ELISA technique using horseradish conjugated goat anti-mouse IgG1, IgG2a, and IgG2b antibodies purchased from Southern Biotechnology, Inc. (Birmingham, Ala.) and used according to the manufacturer's instruction. The IgG1, IgG2a, and IgG2b titers represent the reciprocal serum dilution giving a reading of >0.1 OD units at A490. The serum IgE levels were measured using an anti-IgE capture ELISA followed by the use of a biotinylated ovalbumin probe. Binding was measured following the addition of a horseradish conjugated strepavidin preparation.
(ELISA stands for enzyme-linked immunosorbent assay.)

In assay [2] the test system is allergen specific IgE antibody (ovalbumin). In words: anti-IgE capture ELISA with biotinylated ovalbumin probe on serum of immunised mice. The class given is in vivo, BALB/c female mice. As to conditions: BALB/c mice, 0.2 mL s.c., boosted at day 21, bled 14 days after booster; serum at 1/10 dilution. The procedure: as §1, §2, §3
XOA+Tyrosine+MPL: The XOA tyrosine adsorbate prepared in Preparation 2 above was diluted with an equal volume of MPL®-AF at 500 μg/mL in phosphate buffered saline within 30 min prior to injection. […]
as §4

The source of these data is US8105605B2, “Allergen formulation” (Allergy Therapeutics (UK) Ltd., priority 1997, dated 2012).

Some results are limits rather than exact numbers.

B1: ovalbumin (protein, UniProt P01012 2-386, looked up)
Ovalbumin: GSIGAASMEFCFDVFKELKVHHANENIFYCPIAIMSALAMVYLGAKDSTRTQINKVVRFDKLPGFGDSIEAQCGTSVNVHSSLRDILNQITKPNDVYSFSLASRLYAEERYPILPEYLQCVKELYRGGLEPINFQTAADQARELINSWVESQTNGIIRNVLQPSSVDSQTAMVLVNAIVFKGLWEKAFKDEDTQAMPFRVTEQESKPVQMMYQIGLFRVASMASEKMKILELPFASGTMSMLVLLPDEVSGLEQLESIINFEKLTEWTSSNVMEERKIKVYLPRMKMEEKYNLTSVLMAMGITDVFSSSANLSGISSAESLKISQAVHAAHAEINEAGREVVGSAEAGVDAASVSEEFRADHPFLFCIKHIATNAVLFFGRCVSP
notes: ovalbumin (XOA), a food allergen from chicken eggs, 200 μg/mL in phosphate buffered saline diluted with an equal volume of PBS
Take B1: in assay [1], the “IgG1 titer (reciprocal serum dilution giving a reading of >0.1 OD units at A490)” value is 6400, the “IgG2a Titer (reciprocal serum dilution giving a reading of >0.1 OD units at A490)” value was <100 and the “IgG2b Titer (reciprocal serum dilution giving a reading of >0.1 OD units at A490)” value was <100. In addition, the “IgE OD at 1/10 Dilution” value in assay [2] amounted to 0.235 OD units at A490.
